Data: PMC12098916, “Modelling POLG mutations in mice unravels a critical role of POLγΒ in regulating phenotypic severity”

What was measured:
[1] = molecular target: mouse DNA polymerase γ catalytic subunit, wild type (mPolγA^WT) (mouse) (UniProt P54099); experiment: thermal shift assay (thermofluor, SYPRO Orange); 0.5 µM PolγA with or without 0.75 µM PolγB (1:1.5), mixed on ice for 5 min; 20 mM Tris pH 8, 1 mM DTT, final NaCl 175 ± 50 mM; 4 to 95 °C in steps of 0.5 °C
[2] = molecular target: mouse DNA polymerase γ catalytic subunit, Y933C variant (mPolγA^Y933C) (mouse) (UniProt P54099); experiment: as above
mouse DNA polymerase γ catalytic subunit, Y933C variant (mPolγA^Y933C) (mouse), sequence (P54099 whole entry Y934C): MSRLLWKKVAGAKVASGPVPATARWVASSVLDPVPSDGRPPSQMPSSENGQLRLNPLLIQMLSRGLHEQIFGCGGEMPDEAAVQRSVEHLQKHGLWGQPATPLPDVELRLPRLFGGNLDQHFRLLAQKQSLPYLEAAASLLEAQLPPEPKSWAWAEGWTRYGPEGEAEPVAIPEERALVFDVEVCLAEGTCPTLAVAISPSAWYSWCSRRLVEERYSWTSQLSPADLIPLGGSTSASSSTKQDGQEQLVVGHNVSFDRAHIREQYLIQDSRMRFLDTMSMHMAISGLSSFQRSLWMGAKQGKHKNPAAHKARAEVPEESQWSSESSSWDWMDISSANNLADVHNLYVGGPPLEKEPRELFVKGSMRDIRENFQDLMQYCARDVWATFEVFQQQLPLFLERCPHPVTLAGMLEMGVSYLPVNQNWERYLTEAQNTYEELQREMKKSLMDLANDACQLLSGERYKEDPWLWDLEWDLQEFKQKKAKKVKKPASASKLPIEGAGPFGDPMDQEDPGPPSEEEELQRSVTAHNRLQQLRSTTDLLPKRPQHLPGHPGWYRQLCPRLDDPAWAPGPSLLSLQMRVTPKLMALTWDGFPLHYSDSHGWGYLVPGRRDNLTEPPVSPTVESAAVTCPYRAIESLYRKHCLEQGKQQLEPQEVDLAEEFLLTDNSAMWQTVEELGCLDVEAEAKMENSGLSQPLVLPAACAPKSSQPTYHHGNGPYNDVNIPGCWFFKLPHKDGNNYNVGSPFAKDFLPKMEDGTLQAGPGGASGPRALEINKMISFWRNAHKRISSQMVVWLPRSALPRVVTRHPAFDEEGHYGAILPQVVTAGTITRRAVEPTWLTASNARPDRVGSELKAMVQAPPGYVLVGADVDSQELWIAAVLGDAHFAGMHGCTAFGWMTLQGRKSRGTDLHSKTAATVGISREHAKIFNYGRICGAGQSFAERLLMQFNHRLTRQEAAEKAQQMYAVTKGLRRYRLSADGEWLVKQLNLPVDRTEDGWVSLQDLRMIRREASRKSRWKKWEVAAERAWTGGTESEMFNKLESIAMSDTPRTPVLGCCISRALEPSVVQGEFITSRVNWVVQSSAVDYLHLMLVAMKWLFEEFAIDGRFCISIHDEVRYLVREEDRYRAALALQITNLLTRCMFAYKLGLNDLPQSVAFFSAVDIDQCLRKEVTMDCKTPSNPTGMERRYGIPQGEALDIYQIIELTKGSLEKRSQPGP

[3] = molecular target: T1, mouse PolγA (mPolγA WT);mouse PolγB (mPolγB) (Mus musculus;Mus musculus, UniProt P54099;Q9QZM2 26-1218;1-459, |); experiment: cryo-EM; R (replication) conformer; 10 mM Ca2+, 0.2 mM dCTP; EMSA: 25 mM Tris-HCl pH 8.0, ~30 mM NaCl, 1 mM TCEP, 0.1 mg/ml BSA, 10% glycerol, 10 uM ddCTP, 0.5 nM DNA, 6.6 nM POLγB dimer, ice 10 min then room temperature; conditions: protein: recombinant;recombinant; tags: 6xHis;6xHis; copies: 1;2; 15 nt 5' overhang on strand 1; single mismatch at primer 3' end
T1 sequence (P54099 26-1218, chain 1 of 2): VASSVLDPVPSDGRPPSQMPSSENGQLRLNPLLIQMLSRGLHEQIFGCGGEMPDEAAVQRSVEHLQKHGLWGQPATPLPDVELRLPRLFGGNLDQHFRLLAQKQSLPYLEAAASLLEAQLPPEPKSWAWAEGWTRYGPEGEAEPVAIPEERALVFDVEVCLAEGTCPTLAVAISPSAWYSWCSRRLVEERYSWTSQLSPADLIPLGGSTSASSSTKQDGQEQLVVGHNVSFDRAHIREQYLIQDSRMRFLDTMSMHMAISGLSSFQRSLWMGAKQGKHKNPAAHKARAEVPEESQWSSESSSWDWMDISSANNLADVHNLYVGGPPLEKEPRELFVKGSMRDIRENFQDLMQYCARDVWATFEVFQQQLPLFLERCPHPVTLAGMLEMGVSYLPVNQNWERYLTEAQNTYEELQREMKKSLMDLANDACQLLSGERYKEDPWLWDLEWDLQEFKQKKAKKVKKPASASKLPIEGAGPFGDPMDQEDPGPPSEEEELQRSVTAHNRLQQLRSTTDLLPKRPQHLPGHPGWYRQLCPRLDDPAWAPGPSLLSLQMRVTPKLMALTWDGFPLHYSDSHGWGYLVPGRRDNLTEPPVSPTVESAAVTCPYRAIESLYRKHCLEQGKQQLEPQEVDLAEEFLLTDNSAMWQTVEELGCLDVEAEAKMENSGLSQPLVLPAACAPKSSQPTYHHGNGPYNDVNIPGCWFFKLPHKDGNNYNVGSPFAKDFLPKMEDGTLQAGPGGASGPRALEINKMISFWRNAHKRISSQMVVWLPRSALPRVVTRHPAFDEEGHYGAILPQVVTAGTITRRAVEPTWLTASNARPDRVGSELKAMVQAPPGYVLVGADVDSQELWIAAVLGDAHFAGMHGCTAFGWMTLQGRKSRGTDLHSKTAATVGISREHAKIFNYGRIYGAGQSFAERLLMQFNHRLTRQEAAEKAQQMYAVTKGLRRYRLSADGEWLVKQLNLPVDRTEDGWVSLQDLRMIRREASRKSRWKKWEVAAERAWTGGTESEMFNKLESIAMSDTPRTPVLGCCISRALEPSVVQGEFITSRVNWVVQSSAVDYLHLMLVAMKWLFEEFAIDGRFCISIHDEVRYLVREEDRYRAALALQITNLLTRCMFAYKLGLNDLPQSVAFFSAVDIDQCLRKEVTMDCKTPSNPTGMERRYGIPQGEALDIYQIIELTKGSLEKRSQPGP
T1 sequence (Q9QZM2 whole entry, chain 2 of 2): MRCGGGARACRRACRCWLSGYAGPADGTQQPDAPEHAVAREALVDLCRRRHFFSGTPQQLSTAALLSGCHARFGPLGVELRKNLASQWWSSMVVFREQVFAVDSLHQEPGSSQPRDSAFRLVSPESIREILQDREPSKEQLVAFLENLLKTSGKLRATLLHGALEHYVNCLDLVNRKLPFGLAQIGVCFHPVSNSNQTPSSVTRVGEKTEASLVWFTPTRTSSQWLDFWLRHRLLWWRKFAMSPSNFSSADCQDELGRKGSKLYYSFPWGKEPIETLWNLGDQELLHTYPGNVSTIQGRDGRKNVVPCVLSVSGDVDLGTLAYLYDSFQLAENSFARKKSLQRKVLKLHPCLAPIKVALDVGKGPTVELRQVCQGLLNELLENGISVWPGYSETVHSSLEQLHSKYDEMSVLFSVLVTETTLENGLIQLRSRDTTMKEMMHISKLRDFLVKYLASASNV

[4] = molecular target: mouse PolγA (mPolγA WT);human POLγB (hPOLγB) (Mus musculus;Homo sapiens, UniProt P54099;Q9UHN1 26-1218;26-485, |); experiment: cryo-EM; chimera mAhB, human-like E conformer; 10 mM Ca2+, 0.2 mM dCTP; EMSA: 25 mM Tris-HCl pH 8.0, ~30 mM NaCl, 1 mM TCEP, 0.1 mg/ml BSA, 10% glycerol, 10 uM ddCTP, 0.5 nM DNA, 6.6 nM POLγB dimer, ice 10 min then room temperature; conditions: protein: recombinant;recombinant; tags: 6xHis;6xHis; copies: 1;2; 15 nt 5' overhang on strand 1; single mismatch at primer 3' end
mouse PolγA (mPolγA WT);human POLγB (hPOLγB), sequence (P54099 26-1218, chain 1 of 2): as the sequence (P54099 26-1218, chain 1 of 2) above
mouse PolγA (mPolγA WT);human POLγB (hPOLγB), sequence (Q9UHN1 26-485, chain 2 of 2): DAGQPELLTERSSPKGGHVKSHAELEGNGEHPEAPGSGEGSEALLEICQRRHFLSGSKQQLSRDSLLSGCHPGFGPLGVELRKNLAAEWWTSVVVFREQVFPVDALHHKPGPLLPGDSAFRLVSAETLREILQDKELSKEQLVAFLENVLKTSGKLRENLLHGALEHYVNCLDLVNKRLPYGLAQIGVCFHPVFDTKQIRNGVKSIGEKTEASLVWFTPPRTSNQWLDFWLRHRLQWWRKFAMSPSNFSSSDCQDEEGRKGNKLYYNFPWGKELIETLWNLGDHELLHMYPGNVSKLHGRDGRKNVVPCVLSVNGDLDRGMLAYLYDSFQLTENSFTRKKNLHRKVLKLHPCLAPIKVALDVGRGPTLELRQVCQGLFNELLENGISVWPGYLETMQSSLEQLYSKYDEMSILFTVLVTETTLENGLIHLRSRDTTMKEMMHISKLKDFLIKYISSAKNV

[5] = molecular target: T1, mouse PolγA (mPolγA WT);mouse PolγB …; experiment: EMSA; 10 uM ddCTP; value in Supp Fig 13f not in material; marginally weaker than human; EMSA: 25 mM Tris-HCl pH 8.0, ~30 mM NaCl, 1 mM TCEP, 0.1 mg/ml BSA, 10% glycerol, 10 uM ddCTP, 0.5 nM DNA, 6.6 nM POLγB dimer, ice 10 min then room temperature; conditions: protein: recombinant;recombinant; tags: 6xHis;6xHis; copies: 1;2; label: 32P 5' on 21-mer; 21 bp, 15 nt 5' overhang on strand 1
[6] = molecular target: human POLγA (hPOLγA WT);human POLγB (hPOLγB) (Homo sapiens;Homo sapiens, UniProt P54098;Q9UHN1 26-1239;26-485, |); experiment: EMSA; 10 uM ddCTP; value in Supp Fig 13f not in material; EMSA: 25 mM Tris-HCl pH 8.0, ~30 mM NaCl, 1 mM TCEP, 0.1 mg/ml BSA, 10% glycerol, 10 uM ddCTP, 0.5 nM DNA, 6.6 nM POLγB dimer, ice 10 min then room temperature; conditions: protein: recombinant;recombinant; tags: 6xHis;6xHis; copies: 1;2; label: 32P 5' on 21-mer; 21 bp, 15 nt 5' overhang on strand 1
human POLγA (hPOLγA WT);human POLγB (hPOLγB), sequence (P54098 26-1239, chain 1 of 2): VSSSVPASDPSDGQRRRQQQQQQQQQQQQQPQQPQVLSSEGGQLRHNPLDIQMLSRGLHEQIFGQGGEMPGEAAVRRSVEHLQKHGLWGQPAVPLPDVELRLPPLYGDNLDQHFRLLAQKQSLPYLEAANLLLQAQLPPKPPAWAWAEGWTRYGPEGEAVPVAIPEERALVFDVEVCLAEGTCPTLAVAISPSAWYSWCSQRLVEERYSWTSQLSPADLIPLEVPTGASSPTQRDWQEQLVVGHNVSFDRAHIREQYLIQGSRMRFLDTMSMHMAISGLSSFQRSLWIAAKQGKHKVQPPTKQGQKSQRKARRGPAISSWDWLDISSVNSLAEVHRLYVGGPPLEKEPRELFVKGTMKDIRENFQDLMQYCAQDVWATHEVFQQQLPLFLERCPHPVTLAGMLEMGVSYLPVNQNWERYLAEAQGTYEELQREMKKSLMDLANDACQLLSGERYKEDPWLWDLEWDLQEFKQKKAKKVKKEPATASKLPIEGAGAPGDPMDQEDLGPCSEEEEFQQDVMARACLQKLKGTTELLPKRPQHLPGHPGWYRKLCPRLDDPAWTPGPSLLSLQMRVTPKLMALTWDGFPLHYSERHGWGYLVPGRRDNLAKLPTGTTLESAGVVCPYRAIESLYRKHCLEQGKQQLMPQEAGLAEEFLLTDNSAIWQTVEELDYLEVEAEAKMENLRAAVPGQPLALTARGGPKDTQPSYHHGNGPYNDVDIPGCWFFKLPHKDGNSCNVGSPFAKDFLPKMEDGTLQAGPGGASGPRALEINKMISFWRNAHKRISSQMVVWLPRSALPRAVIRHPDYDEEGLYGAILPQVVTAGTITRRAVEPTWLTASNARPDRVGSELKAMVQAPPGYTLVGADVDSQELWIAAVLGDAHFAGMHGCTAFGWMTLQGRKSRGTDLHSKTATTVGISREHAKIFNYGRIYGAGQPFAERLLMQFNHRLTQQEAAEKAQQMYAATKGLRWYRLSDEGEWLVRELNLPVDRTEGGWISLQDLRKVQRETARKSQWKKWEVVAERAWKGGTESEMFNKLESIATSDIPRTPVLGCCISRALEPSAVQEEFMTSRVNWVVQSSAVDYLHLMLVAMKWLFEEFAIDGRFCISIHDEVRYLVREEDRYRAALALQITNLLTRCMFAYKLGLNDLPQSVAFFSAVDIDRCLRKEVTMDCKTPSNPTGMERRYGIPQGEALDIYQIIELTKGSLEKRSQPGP
human POLγA (hPOLγA WT);human POLγB (hPOLγB), sequence (Q9UHN1 26-485, chain 2 of 2): as the sequence (Q9UHN1 26-485, chain 2 of 2) above

mouse DNA polymerase γ catalytic subunit, wild type (mPolγA^WT) (mouse), sequence (P54099 whole entry): as the sequence (P54099 whole entry Y934C) above, with C934Y counted along it

## mouse DNA polymerase γ accessory subunit, wild type (mPolγB^WT)
[1]
  increase in Tm of PolγA in complex with PolγB: 9 °C

## mouse DNA polymerase γ accessory subunit, wild type (mPolγB^WT) (natural protein)
[2]
  increase in Tm of PolγA in complex with PolγB: 9 °C

B1: cryo-EM primer-template 40/25 with 3' mismatch (dsDNA)
DNA 1: TTTTTTTTTTATCCGGGCTCCTCTAGACTCGACCGCATGC
DNA 2: GCATGCGGTCGAGTCTAGAGGAGCT
[3]
  binding result: binds
[4]
  binding result: binds

B2: EMSA primer-template 36/21 (dsDNA)
DNA 1: TTTTTTTTTTATCCGGGCTCCTCTAGACTCGACCGC
DNA 2: GCGGTCGAGTCTAGAGGAGCC
[5]
  binding result: binds
[6]
  binding result: binds
